Test results reported in patent US20190032056, “STEM-LOOP COMPOSITIONS AND METHODS FOR INHIBITING FACTOR D” (Vitrisa Therapeutics, Inc., published 2019).

B1: C1 (ssRNA)
RNA: GGGAGUGUGUACGAGGCAUUAGGCCGCCACCCAAACUGCAGUCCUCGUAAGUCUGCCUGGCGGCUUUGAUACUUGAUCGCCCUAGAAGC
modifications: 2'-F G; 2'-OMe A, C, U
B2: C3 (ssRNA)
RNA: GGGAGUGUGUACGAGGCAUUAGGCCGCCACCUCGUUUGAUUGCGGUUGUUCGGCCGCGGGCGGCUUUGAUACUUGAUCGCCCUAGAAGC
modifications: 2'-F G; 2'-OMe A, C, U
B3: C2 (ssRNA)
RNA: GGGAGUGUGUACGAGGCAUUAGUCCGCCGAAGUCUUUUGGCUCGGUUUUUUCAAGGUCGGCGGCUUUGAUACUUGAUCGCCCUAGAAGC
modifications: 2'-F G; 2'-OMe A, C, U
B4: Aptamer 1723 (ssRNA)
RNA: CCGCCUUGCCAGUAUUGGCUUAGGCUGGAAGUUUGGCGG
modifications: 2'-F G except 2'-OMe G at 3,12,24,27,28,35,36,38,39; 2'-OMe A,C,U; 5' C6SH; 3' idT

Molecular target: T1, complement Factor D (fD) in C1q-depleted human serum (Homo sapiens, UniProt P00746 SEQ:1-228)
T1 sequence (P00746 26-253): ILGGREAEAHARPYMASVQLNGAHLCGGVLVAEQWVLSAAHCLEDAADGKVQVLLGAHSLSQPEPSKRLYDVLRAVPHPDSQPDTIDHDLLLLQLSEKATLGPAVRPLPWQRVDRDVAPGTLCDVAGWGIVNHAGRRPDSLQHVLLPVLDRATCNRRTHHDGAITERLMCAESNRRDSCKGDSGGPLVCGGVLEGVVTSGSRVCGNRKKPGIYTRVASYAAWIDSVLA
Experiment: inhibition; hemolysis
Details: protein: extract; tags: endogenous fD, about 9.6 nM in 10% serum; hairpin

| Binder | IC50 |
| --- | --- |
| CGCCUUGCCAGUAUUGGCGAUGGCUGGAAGUUUGGCG (ssRNA, 2'-F G; 2'-OMe A,C,U; 5' C6NH2; 3' idT) [Aptamer 60] | < 10 nM |
| CAGCCGUGCUAGUAUUGGCAUUGGCUAGAAGUUAGGCUG (ssRNA, 2'-F G; 2'-OMe A,C,U; 5' C6NH2; 3' idT) [Aptamer 34] | 6.9 nM |
| CUGCCUUGCGGGUAUUGGCGUUGGCCCGAAGUUUGGCUG (ssRNA, 2'-F G; 2'-OMe A,C,U; 5' C6NH2; 3' idT) [Aptamer 38] | 5.5 nM |
| CCGACUUGCGGGUAUUGGCGUUGGCCCGAAGUUUGUCGG (ssRNA, 2'-F G; 2'-OMe A,C,U; 5' C6NH2; 3' idT) [Aptamer 59] | < 10 nM |
| CUGCCUUGCGGGUAUUGGCGAUGGCCCGAAGUUUGGCUG (ssRNA, 2'-F G; 2'-OMe A,C,U; 5' C6NH2; 3' idT) [Aptamer 57] | ~10 nM |
| CCGACUUGCCAGUAUUAGCUUAGGCUGGAAGUUUGUCGG (ssRNA, 2'-F G; 2'-OMe A,C,U; 5' C6NH2; 3' idT) [Aptamer 64] | ~100 nM |
| CCGACUUGCCAGUAUUGGCGAAGGCUGGAAGUUUGUCGG (ssRNA, 2'-F G; 2'-OMe A,C,U; 5' C6NH2; 3' idT) [Aptamer 71] | < 10 nM |
| CCGACUUGCCAGUAUUGGCCUAGGCUGGAAGUUUGUCGG (ssRNA, 2'-F G; 2'-OMe A,C,U; 5' C6NH2; 3' idT) [Aptamer 66] | ~100 nM |
| CCGACUUGCCAGUAUUGGCGCAGGCUGGAAGUUUGUCGG (ssRNA, 2'-F G; 2'-OMe A,C,U; 5' C6NH2; 3' idT) [Aptamer 69] | < 10 nM |
| CCGACUUGCCAGUAUAGGCUCAGGCUGGAAGUUUGUCGG (ssRNA, 2'-F G; 2'-OMe A,C,U; 5' C6NH2; 3' idT) [Aptamer 62] | ~10 nM |
| CCGACUUGCCAGUGUUGGCUUUGGCUGGAAGUUUGUCGG (ssRNA, 2'-F G; 2'-OMe A,C,U; 5' C6NH2; 3' idT) [Aptamer 36] | 8.2 nM |
| CCGACUUGCCAGUAUUGGCUCUGGCUGGAAGUUUGUCGG (ssRNA, 2'-F G; 2'-OMe A,C,U; 5' C6NH2; 3' idT) [Aptamer 72] | ~100 nM |
| CCGACUUGCCAGUAUUGGCUUAGGCUGGAAGUUUGUCGG (ssRNA, 2'-F G; 2'-OMe A,C,U; 5' C6NH2; 3' idT) [Aptamer 88] | < 10 nM |
| CGCAUUGCUAGUAUUGGCUUAGGCUAGAAGUGUUGCG (ssRNA, 2'-F G; 2'-OMe A,C,U; 5' C6NH2; 3' idT) [Aptamer 40] | 5.8 nM |
| CGACUUGCGGGUAUUGGCGAUGGCCCGAAGUUUGUCG (ssRNA, 2'-F G; 2'-OMe A,C,U; 5' C6NH2; 3' idT) [Aptamer 55] | ~10 nM |
| CCGCCUUGCGAGUAAUGGCGUAGGCUCGAAGUUGGGCGG (ssRNA, 2'-F G; 2'-OMe A,C,U; 5' C6NH2; 3' idT) [Aptamer 35] | 5.4 nM |
| CAGCCAUGCAAGUAUUGGCUUAGGCUUGAAGUUCGGCUG (ssRNA, 2'-F G; 2'-OMe A,C,U; 5' C6NH2; 3' idT) [Aptamer 33] | 11 nM |
| CCGACUUGCCAGUAUUGGCGAUGGCUGGAAGUUUGUCGG (ssRNA, 2'-F G; 2'-OMe A,C,U; 5' C6NH2; 3' idT) [Aptamer 39] | 3.1 nM |
| CCGACUUGCGGGUAUUGGCGAUGGCCCGAAGUUUGUCGG (ssRNA, 2'-F G; 2'-OMe A,C,U; 5' C6NH2; 3' idT) [Aptamer 54] | ~10 nM |
| CCGACUUGCCAGUAUUGGCGCUGGCUGGAAGUUUGUCGG (ssRNA, 2'-F G; 2'-OMe A,C,U; 5' C6NH2; 3' idT) [Aptamer 68] | ~10 nM |

Molecular target: T1, complement Factor D (fD) in …
Experiment: inhibition; hemolysis
Details: protein: extract; tags: endogenous fD, about 9.6 nM in 10% serum; hairpin
Remark: another data set of the same source
Method: (§1) In V-bottom 96-well plates the following reagents were added to a final volume of 250 μL: appropriate volume of 1× Veronal buffer with 0.1% gelatin, 100 μL aptamer, 30 μL of C1q-depleted human serum and 20 μl RBCs. This mixture was incubated for 25 minutes at room temperature, then the reaction was stopped by the addition of 5 μL of 500 mM EDTA. The plate was centrifuged for 5 minutes at 500×g at room temperature, then 100 μL of supernatant was removed and the extent of RBC lysis was determined by measuring absorbance at 405 nm.
To this end, series of aptamer variants were designed based on the loop L2 sequences for Aptamers 15, 39, and 38 in which the sequence of S1 and S2 were altered while maintaining pairing (Table 17). These included Aptamers 90, and 94-98. Additionally, a truncate of Aptamer 38 (Aptamer 91) was designed with 3 base pairs in stem S1. The stem elements (S1 and S2) from this molecule were also used to generate Aptamer 92, which contained L2 from Aptamer 39.

| Binder | IC50 |
| --- | --- |
| CGCCUUGCCAGUAUUGGCUUAGGCUGGAAGUUUGGCG (ssRNA, 2'-F G; 2'-OMe A,C,U; 5' C6NH2; 3' idT) [Aptamer 16] | < 10 nM |
| GCCUUGCGGGUAUUGGCGAUGGCCCGAAGUUUGGC (ssRNA, 2'-F G; 2'-OMe A,C,U; 5' C6NH2; 3' idT) [Aptamer 92] | ~10 nM |
| GCCUUGAGGGUAUUGGCGAUGGCCCUAAGUUUGGC (ssRNA, 2'-F G; 2'-OMe A,C,U; 5' C6NH2; 3' idT) [Aptamer 93] | ~100 nM |
| GGCCUUGCCCGUAUUGGCGAUGGCGGGAAGUUUGGCC (ssRNA, 2'-F G; 2'-OMe A,C,U; 5' C6NH2; 3' idT) [Aptamer 98] | < 10 nM |

Molecular target: T2, complement Factor D (fD) (Homo sapiens, UniProt P00746 SEQ:1-228)
T2 sequence (P00746 26-253): as the sequence (P00746 26-253) above
Experiment: competition; signal reduced about 75-90% by 100 nM AFD anti-fD Fab; SB1T, 37 C
Details: tags: His-tagged, immobilized on magnetic His capture beads; label: Dy650 via hybridized 2'-OMe reverse oligo
Method: Competition binding assays were performed using a clone of an anti-fD Fab with an amino acid sequence of heavy chain variable region according to SEQ ID NO:7 and light chain variable region according to SEQ ID NO:8 (hereinafter, “AFD”) to further assess binding. For the competition assays, beads labelled with fD were first incubated with 50 nM round or individual aptamer, in 50 μl SB1T (with ssDNA and BSA), for 30 minutes at 37° C. The beads were then washed with SB1T to remove unbound aptamers and incubated with or without 100 nM AFD for 30 minutes at 37° C. Following incubation, the beads were washed three times with SB1T, and assayed by flow cytometry (FIG. 12). […] In cases where aptamers are sufficiently outcompeted by AFD as described above, such aptamers were presumed to be binding to the exosite or the self-inhibitory loop of fD.

| Binder | binding result |
| --- | --- |
| B1 | binds |
| B2 | binds |
| B3 | binds |

Molecular target: T1, complement Factor D (fD) in …
Experiment: inhibition; hemolysis
Details: protein: extract; tags: endogenous fD, about 9.6 nM in 10% serum; hairpin
Remark: another data set of the same source
Method: as §1
The following nine aptamers with 2′OMe-Gs in Stem 1 (S1) were synthesized: Aptamer 76 (2′OMe-Gs substituted in Stem 1 (S1) of Aptamer 39), Aptamer 116 (Aptamer comprising loop 2 (L2) of Aptamer 39 and Stem 1 (51) of Aptamer 15 with 2′OMe-Gs in Stem 1 (S1)), Aptamer 102 (4 base pair 2′OMe-G Stem 1 (S1) variant of Aptamer 76), Aptamer 104 (4 base pair 2′OMe-G Stem 1 (S1) variant of Aptamer 74), Aptamer 106 (Aptamer 88 with 2′OMe-G Stem 1 (S1)), Aptamer 107 (4 base pair 2′OMe-G Stem 1 (S1) variant of Aptamer 88), Aptamer 108 (3 base pair 2′OMe-G Stem 1 (S1) variant of Aptamer 92), Aptamer 109 (4 base pair 2′OMe-G Stem 1 (S1) variant of Aptamer 98) and, Aptamer 99 (4 base pair 2′OMe-G Stem 1 (S1) variant of Aptamer 60).

| Binder | IC50 |
| --- | --- |
| CGCCUUGCCAGUAUUGGCUUAGGCUGGAAGUUUGGCG (ssRNA, 2'-F G except 2'-OMe G in stem 1; 2'-OMe A,C,U; 5' C6NH2; 3' idT) [Aptamer 104] | < 10 nM |
| CGCCUUGCCAGUAUUGGCGAUGGCUGGAAGUUUGGCG (ssRNA, 2'-F G except 2'-OMe G in stem 1; 2'-OMe A,C,U; 5' C6NH2; 3' idT) [Aptamer 99] | < 10 nM |
| CGACUUGCCAGUAUUGGCUUAGGCUGGAAGUUUGUCG (ssRNA, 2'-F G except 2'-OMe G in stem 1; 2'-OMe A,C,U; 5' C6NH2; 3' idT) [Aptamer 107] | < 10 nM |
| GCCUUGCGGGUAUUGGCGAUGGCCCGAAGUUUGGC (ssRNA, 2'-F G except 2'-OMe G in stem 1; 2'-OMe A,C,U; 5' C6NH2; 3' idT) [Aptamer 108] | < 10 nM |
| CCGCCUUGCCAGUAUUGGCGAUGGCUGGAAGUUUGGCGG (ssRNA, 2'-F G except 2'-OMe G in stem 1; 2'-OMe A,C,U; 5' C6NH2; 3' idT) [Aptamer 116] | < 10 nM |
| GGCCUUGCCCGUAUUGGCGAUGGCGGGAAGUUUGGCC (ssRNA, 2'-F G except 2'-OMe G in stem 1; 2'-OMe A,C,U; 5' C6NH2; 3' idT) [Aptamer 109] | < 10 nM |

Molecular target: T2, complement Factor D (fD)
Experiment: SPR
Details: tags: amine-coupled to dextran chip for SPR; free in esterase assay; hairpin
Method: The binding affinity of aptamers for fD was determined by surface plasmon resonance (SPR) on a Reichert4 SPR System, where either aptamer or fD was immobilized as ligand on a solid surface and the interactant analyte was flowed in solution over the immobilized ligand (Table 20).

| Binder | Kd |
| --- | --- |
| CGCCUUGCCAGUAUUGGCUUAGGCUGGAAGUUUGGCG (ssRNA, 2'-F G except 2'-OMe G in stem 1; 2'-OMe A,C,U; 5' C6NH2; 3' idT) [Aptamer 104] | 3.9 nM |
| CGCCUUGCCAGUAUUGGCGAUGGCUGGAAGUUUGGCG (ssRNA, 2'-F G except 2'-OMe G in stem 1; 2'-OMe A,C,U; 5' C6NH2; 3' idT) [Aptamer 99] | 3.34 nM |
| CGACUUGCCAGUAUUGGCUUAGGCUGGAAGUUUGUCG (ssRNA, 2'-F G except 2'-OMe G in stem 1; 2'-OMe A,C,U; 5' C6NH2; 3' idT) [Aptamer 107] | 4.2 nM |
| GCCUUGCGGGUAUUGGCGAUGGCCCGAAGUUUGGC (ssRNA, 2'-F G except 2'-OMe G in stem 1; 2'-OMe A,C,U; 5' C6NH2; 3' idT) [Aptamer 108] | 2.7 nM |
| GGCCUUGCCCGUAUUGGCGAUGGCGGGAAGUUUGGCC (ssRNA, 2'-F G except 2'-OMe G in stem 1; 2'-OMe A,C,U; 5' C6NH2; 3' idT) [Aptamer 109] | 1.07 nM |

Molecular target: T2, complement Factor D (fD)
Experiment: flow; bead-based direct binding
Details: tags: His-tagged recombinant, bead-immobilized via His capture beads (flow) or anti-His Eu (TR-FRET); hairpin

| Binder | Kd |
| --- | --- |
| B4 | 45 nM |
| CCGCCUUGCCAGUAUUGGCUUAGGCUGGAAGUUUGGCGG (ssRNA, 2'-F G except 2'-OMe G at 3,12,27,28,35,36,38,39; 2'-OMe A,C,U; 5' C6SH; 3' idT) [Aptamer 1722] | 11 nM |
| CCGCCUUGCCAGUAUUGGCUUAGGCUGGAAGUUUGGCGG (ssRNA, 2'-F G except 2'-OMe G at 3,12,27,35,36,38,39; 2'-OMe A,C,U; 5' C6SH; 3' idT) [Aptamer 1721] | 4.5 nM |
